Kd data for one substance are collected here from patent publication US20220025071A1.

The target in assay [1] is Recombinant human Fc gamma receptor I, CD64 (human) (UniProt P12314).
Assay [2] deals with Recombinant human Fc gamma receptor IIIa, CD16a 158V (human) (UniProt P08637).
In assay [3] the target is Recombinant human Fc gamma receptor IIb/c, CD32b/c (human) (UniProt P31994).
Assay [4] addresses Recombinant human Fc gamma receptor IIIb, CD16b (human) (UniProt O75015).
In assay [5] the target is Recombinant human Fc gamma receptor IIa, CD32a 131R (human) (UniProt P12318).
Sequence of Recombinant human Fc gamma receptor IIa, CD32a 131R (human) (P12318 36-218 H167R): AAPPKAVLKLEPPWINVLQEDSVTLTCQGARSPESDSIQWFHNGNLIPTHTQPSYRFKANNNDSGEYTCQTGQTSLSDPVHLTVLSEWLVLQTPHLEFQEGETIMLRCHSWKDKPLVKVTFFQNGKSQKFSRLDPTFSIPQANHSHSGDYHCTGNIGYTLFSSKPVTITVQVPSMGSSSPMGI
Assay [6] has as its target Recombinant human Fc gamma receptor IIa, CD32a 131H (human) (UniProt P12318).
The target of assay [7] is CD20 Lipoparticles (UniProt P11836).
Sequence of CD20 Lipoparticles (P11836 whole entry): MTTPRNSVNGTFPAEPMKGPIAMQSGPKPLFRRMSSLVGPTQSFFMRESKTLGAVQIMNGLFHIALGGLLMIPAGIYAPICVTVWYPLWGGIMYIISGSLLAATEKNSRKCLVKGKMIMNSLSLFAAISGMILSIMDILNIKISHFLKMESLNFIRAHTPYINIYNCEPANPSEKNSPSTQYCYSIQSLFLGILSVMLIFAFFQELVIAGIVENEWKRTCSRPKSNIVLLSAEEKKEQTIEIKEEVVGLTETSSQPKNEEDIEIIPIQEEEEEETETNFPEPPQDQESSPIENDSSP

Sequence of Recombinant human Fc gamma receptor IIIb, CD16b (human) (O75015 17-200 limits assumed): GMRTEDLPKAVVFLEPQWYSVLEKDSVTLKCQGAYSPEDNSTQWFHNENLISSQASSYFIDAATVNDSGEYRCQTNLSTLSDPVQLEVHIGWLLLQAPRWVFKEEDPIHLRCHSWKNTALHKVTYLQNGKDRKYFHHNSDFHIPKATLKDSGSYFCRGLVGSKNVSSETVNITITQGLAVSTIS
Sequence of Recombinant human Fc gamma receptor IIa, CD32a 131H (human) (P12318 36-218): as the sequence (P12318 36-218 H167R) above, with R132H counted along it
Sequence of Recombinant human Fc gamma receptor IIIa, CD16a 158V (human) (P08637 17-208 F176V limits assumed): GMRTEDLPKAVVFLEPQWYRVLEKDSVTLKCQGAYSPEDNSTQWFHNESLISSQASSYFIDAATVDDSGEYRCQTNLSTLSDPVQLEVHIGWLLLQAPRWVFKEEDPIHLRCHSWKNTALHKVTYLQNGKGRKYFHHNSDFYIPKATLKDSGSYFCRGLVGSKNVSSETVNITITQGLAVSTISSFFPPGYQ
Sequence of Recombinant human Fc gamma receptor IIb/c, CD32b/c (human) (P31994 46-217): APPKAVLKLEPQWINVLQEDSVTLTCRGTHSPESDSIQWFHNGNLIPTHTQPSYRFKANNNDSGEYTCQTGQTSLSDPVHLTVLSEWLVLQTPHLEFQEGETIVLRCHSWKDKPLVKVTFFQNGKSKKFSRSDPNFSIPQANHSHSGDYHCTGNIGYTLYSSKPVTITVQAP
Sequence of Recombinant human Fc gamma receptor I, CD64 (human) (P12314 16-288 limits assumed): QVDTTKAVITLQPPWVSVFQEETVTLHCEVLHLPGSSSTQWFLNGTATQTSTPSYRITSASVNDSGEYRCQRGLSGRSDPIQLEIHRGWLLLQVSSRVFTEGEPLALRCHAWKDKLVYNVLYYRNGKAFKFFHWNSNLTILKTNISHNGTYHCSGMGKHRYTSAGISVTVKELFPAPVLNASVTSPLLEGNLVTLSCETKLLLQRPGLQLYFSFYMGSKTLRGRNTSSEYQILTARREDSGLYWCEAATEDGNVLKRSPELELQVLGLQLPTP

Rituxan (antibody): the Kd turned out to be 52.8 nM in assay [1]; 715 nM in assay [2]; 1520 nM in assay [3]; 1530 nM in assay [4]; 1250 nM in assay [5]; 892 nM in assay [6]. This substance also showed a Kd in assay [7] of under 0.001 nM.
